Laboratory results published in US20230002466A1.

Molecular target: human IL2Rα (human) (UniProt P01589)
Assay: SPR, IL2Rα captured on Protein A chip, IL2 at 100 nM

Chain of human IL2Rα (human) (P01589 22-213 limits assumed): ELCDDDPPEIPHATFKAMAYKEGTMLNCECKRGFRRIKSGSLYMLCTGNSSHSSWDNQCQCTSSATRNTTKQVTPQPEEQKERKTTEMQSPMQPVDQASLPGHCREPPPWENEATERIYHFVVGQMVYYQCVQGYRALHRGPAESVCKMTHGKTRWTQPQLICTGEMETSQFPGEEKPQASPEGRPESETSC

B1: EP225 (ligand)
chain: APTSSSTKKTQLQLEHLLLDLQMILNGINNYKNPKLTRMLTAKFYMPKKATELKHLQCLEEELKPLEEVLNLAQSKNFHLTARDAVDNMRVIIQELKGSETTFMCEYADETATIVEFLNRWITFSQSIISTLTGSHHHHHH
RU (at 100 nM): 7.4 RU | Relevant binding to WT IL2 (%): 5.21%
